This note sets out measurements from the nanobody polyreactivity screen of Harvey et al. (2022).

This data set is described as follows: yeast display, Sf9 membrane polyspecificity reagent, FACS + sequencing; frameworks hold sequencing errors. In short, it runs like this:
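Polyreactivity labels are assigned by the sorting gate from which each nanobody was recovered. The gates were low and high (top ~1%), set on anti-HA fluorescence for expression and streptavidin fluorescence for reagent binding. Before sorting, galactose-induced (36–48 hours) yeast display cells were stained for 1 hour at 4 °C with 10% biotinylated, detergent-solubilized Sf9 membrane reagent.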
For the sequence “QVQLVESGGGLVQAGGSLRLSCAASGRIFLGYAKGWYRQAPGKERELVAAINRSGSSTYYADSVKGRFTISRDIAKNTVYLQMNSLKPEHSAVYYCNARSGNRYGPRYDYWVQGTQVTVSS”, the “polyreactivity (PSR sort gate)” value is “high polyreactivity”.
Then “QVQLVESGGGLVQAGGSLRLSCAASGRIFLGYAMGWYRQAPGKERELVAAISRSGGRTYYADSVKGRFTISRDNAKNTVYLQMNRLKPEDTAVYYCAARALYPLGYDYWGQGTQVTVSS”, with “high polyreactivity”.
The same measure for “QVQLVESGGGLVQAGGSLRLSCAASGRIFLINAMGWSRQAPGKERELDATISRSGASTDYADSVKGRFTISRDNAKNTVYLQMNSLKPEDTAVYYCNAKVYKRRVVPYDYWGQGTQVTVSS”: “high polyreactivity”; for “QVQLVESGGGLVQAGGSLRLSCAASGRIFLKNAMGWYRQAPGKERELVAVISRGGSTYYADSVKGRFTISRDNAKNTVYLQMNSLKPEDTAVYYCAAPYNVIFGGLDYWGQGTQVTVSS”: “high polyreactivity”.
On to “QVQLVESGGGLVQAGGSLRLSCAASGRIFLLNAMGWSRQAPGKERELVAAIDIIGGSTYYADSVKGRFTISRDNAKNTVYLQMNSLKPEDTAVFYCAAEADFWRFVEYDYWGQGTQVTVSS”, for which the “polyreactivity (PSR sort gate)” value was “low polyreactivity”.
The same measure for “QVQLVESGGGLVQAGGSLRLSCAASGRIFLLNAMGWYRQAPGKERELVARISSGRTYYADSVKGRFTISRDNAKNTVYLQMNSLKPEDTAVYYCNATVSSSKYRYFYVNPYDYWGQGTQVTVSS”: “low polyreactivity”; for “QVQLVESGGGLVQAGGSLRLSCAASGRIFLPNAMGWYRQAPGKEREFVASISWSGGSTYYADSVKGRFTISRDNAKNTVYLQMNSLNPEDTAVYYCAAQSPAYYSKSYWGQGTQVTVSS”: “low polyreactivity”; for “QVQLVESGGGLVQAGGSLRLSCAASGRIFLPYAMGWYRHAPGKERELVAAISRTGDRTYYADSVKGRFTISRDNAKNTVYLHMNSLKPEDTAVYYCNTSLPPTVIRYHLRYPRYDHWGQGTQVTVSS”: “low polyreactivity”.
Then “QVQLVESGGGLVQAGGSLRLSCAASGRIFLRNAMGWYRQAPGKERELVATITSRGGSTYYADAVKGRFTISRDNAKNTVYLQMNSLKPVDTEVYDCAADPRRYRGFGYVYGGFYYWGQGTQVTVSS”, with “low polyreactivity”.
The same measure for “QVQLVESGGGLVQAGGSLRLSCAASGRIFLRNDMGWYRQAPGKERELVAGISSDGSTYYADSVKGRFTISRDNAKNTVYLQMNSLKPEDTAVDYCARYGTDHRLGYGYWGQGTQVTVSS”: “low polyreactivity”; for “QVQLVESGGGLVQAGGSLRLSCAASGRIFLSNALGWYSQAPGKERELVAALSWTGGSTYYADSVTGRFTISRDNAKNTVYLQMNSLKPEDTAVYYCAASTVGQTYSYYVDTYDYWGQGTQVTVSS”: “low polyreactivity”.
Regarding “QVQLVESGGGLVQAGGSLRLSCAASGRIFLVYVMGWYRQAPGKERELVADITFSGGSTYYADSVKGRFTISRDNAKNTVYLQMNSLKPEDTAVYYCAARKPRSGGPFDYWGQGTQVTVSS”, the “polyreactivity (PSR sort gate)” value is listed as “high polyreactivity”.
Consider “QVQLVESGGGLVQAGGSLRLSCAASGRIFLWYAMGWYRQAPGKERELVAAISSNGGSTRYADSVKGRFTISRDNAKNTVYLQMNSLKPVDNAVYYCNADVHWNRYPYGGNGYGYWGQGTQVTVSS”, for which the “polyreactivity (PSR sort gate)” value is given as “low polyreactivity”.
Then “QVQLVESGGGLVQAGGSLRLSCAASGRIFLWYAMGWYRQAPGKERELVAANSSNGGSTRYADSVKGRFTISRDNAKNTVYLQMNSLKPEDTAVYYCNADVHWNRYPYGGNGYGYWGQGTQVTVSS”, with “low polyreactivity”.
Regarding “QVQLVESGGGLVQAGGSLRLSCAASGRIFLWYTMGWYRQAPGKERELVASITRGGTTNYADSVKGRFTISRDNAKNTVYLQMNSLKPEDTAVYYFNVAYTWCQSTTSWYDIHYYWGQGSQVTVSS”, the “polyreactivity (PSR sort gate)” value is reported as “high polyreactivity”.
The same measure for “QVQLVESGGGLVQAGGSLRLSCAASGRIFLYNAMGWYRQAPGKERELVAAISYNSGRTYYADSVKGRFTISRDNAKNTVYLQMNSLKPEDTAVYYCAAVSYPAVYGFDYWGQVTQVTVSS”: “high polyreactivity”; for “QVQLVESGGGLVQAGGSLRLSCAASGRIFLYYAMGWYRQAPGKERELVAAIDSSGGNTNYADSVKGRFTISRDNAKNTVYFQMNSLKPEDTAVYYCAADFYVSADRWPNYDYWGQGTQVTVSS”: “low polyreactivity”; for “QVQLVESGGGLVQAGGSLRLSCAASGRIFLYYAMGWYRQAPGKERELVAAITSDGSTNYADSVKGRFTISRDNAKNTVYLQMNSLKPEDTAVYYCARRIQTYHYHYDYWGQGTQVTVSS”: “low polyreactivity”.
The same measure for “QVQLVESGGGLVQAGGSLRLSCAASGRIFLYYTMGWYRQAPGKERELVAAITRSGGSTYYADSVKGRFTISRDNAKNTVYLQMISLKPEDTAVYYGADRYWERYRAFNYWGQGTQVTVSS”: “high polyreactivity”; for “QVQLVESGGGLVQAGGSLRLSCAASGRIFNANAKGWYRQAPWKERELVAAITYSGGSTYYADSVKGRFTISRDNAKNTVYLQKNSLKPEDTAVYYCNVDYAGPYDYWGQGTQVTVSS”: “low polyreactivity”; for “QVQLVESGGGLVQAGGSLRLSCAASGRIFNDYAMGWYRQAPGKERELVAVIRRSGVSTYYADSVKGRFTISRDNAKNTVYLQMNSLKPEDTAVYYCAADIRSNRLYDGGYWGQGTQVTVSS”: “low polyreactivity”.
Then “QVQLVESGGGLVQAGGSLRLSCAASGRIFNFYAMGWYRQAPGKERELVASITSDGSTKYADSVKGRFTISRDNAKNTVYLKMNSLKPEDTAVFYCATDTWGSYYDDDDYWGQGTQVTVSS”, with “high polyreactivity”.
With “QVQLVESGGGLVQAGGSLRLSCAASGRIFNGNAMVWYRQAPGKERELVASINVRGGRTYYADSVKGRFTISRDNAKNTVYLQMNSLKPEDTAVYYWYADYAWYQRKSTVDYDYWGQVTQVTVSS”, the “polyreactivity (PSR sort gate)” value is “low polyreactivity”.
Then “QVQLVESGGGLVQAGGSLRLSCAASGRIFNGNDMGWYRQAPGKERELVAAISYSGGSTYYADSVKGRFTISRDNAKNTVYLQMNSLKPEDTAVYYCAALTIRVGSLGRDYWVQGTQVTVSS”, with “low polyreactivity”; and “QVQLVESGGGLVQAGGSLRLSCAASGRIFNLYAMGWYRPAPGKESELVAAISGSGGRTSYADSVKGRFTISRDNAKNTVYLQMNSLKPEDTAVYYCAADYSFYTSFRYDYWGQGTQVTVSS”, with “low polyreactivity”.
The same measure for “QVQLVESGGGLVQAGGSLRLSCAASGRIFNPYAMGWYRQAPGKEREFVAAIRWSSGSTSYADSVKGRFTISRDNAKNTVYLQMNSLKPEDTAVYYCNTRSHSYYTLWGASRPRFDYWGQGTQVTVSS”: “high polyreactivity”; for “QVQLVESGGGLVQAGGSLRLSCAASGRIFNQYAMGWYIQAPGKERELVAAISRRGGSTYYADSVKGRFTISRDNAKNTVYLQMNSLKPEDTAVYYCAAVGGYASYFHLYYYWGQGTQVTVSS”: “high polyreactivity”; for “QVQLVESGGGLVQAGGSLRLSCAASGRIFNRNAMGWYRQAPGKERELVAAISRSGDNTYYADSVKGRFTISRDNAKNTVYLQMNSLKPEDTAVYYCAKDGSLDAQSYDYDYWGQGTQVTVSS”: “low polyreactivity”.
The same measure for “QVQLVESGGGLVQAGGSLRLSCAASGRIFNTYAMGWYRQAPGKERELVAAITSSGGSTYYADSVKGRFTISRDNAKNTVYFQMNSLKPEDTAVYYCNAGSLHRRYYYEGDYWGQGTQVTVSS”: “high polyreactivity”; for “QVQLVESGGGLVQAGGSLRLSCAASGRIFNVYAMGWYRQAPGKERELVAAITYSGGSTYYADSVKVRITISRDNAKNSVYLQMIFLKPEDTAVYYCNARSSKRSSRGYDYWGQGTQVTVSS”: “high polyreactivity”; for “QVQLVESGGGLVQAGGSLRLSCAASGRIFNWYRMGWYRQAPGKERELVAAISRGGGRTYYADSVKGRFTISRDNAKNTVYLQMNSLKPEDTAVYYCNAVDASHAGPVGGAFRYDYWGQGTQVTVSS”: “high polyreactivity”.
“QVQLVESGGGLVQAGGSLRLSCAASGRIFNYNTMGWYRQAPGKERELVAAINFSGDRTYYADSVKGRFTISRDISKNTVYLQMNSLKPEDTAVYYCAAQGYWYGYQPGNYWGQGTQVTVSS”: the “polyreactivity (PSR sort gate)” value is recorded as “high polyreactivity”.
On to “QVQLVESGGGLVQAGGSLRLSCAASGRIFNYYAMGWYRQAPGKEREFVAAITSGGGSTYYADSVKGRFTISRDNAKNNVYLQMNSLKPEDTAVYYCNARLQSQVDAIGYGYWGQGTQVTVSS”, for which the “polyreactivity (PSR sort gate)” value is “high polyreactivity”.
For “QVQLVESGGGLVQAGGSLRLSCAASGRIFNYYAMGWYRQAPGKERELVAAISSGGSTYYADSVKGRFTISRDNAKNTVYLQMNSLKPEDTAVYYCAAAYGDYGYWGQGTQVTVSS”, the “polyreactivity (PSR sort gate)” value was “high polyreactivity”.
For “QVQLVESGGGLVQAGGSLRLSCAASGRIFNYYAMGWYRQAPGKERELVAVISRTGVRTHYADSVKGRFTISRDIAKNTVYLQMNRLKPEDTAVDYCNADSYVFRYDYWGQGSQVTVSS”, the “polyreactivity (PSR sort gate)” value is “high polyreactivity”.
The same measure for “QVQLVESGGGLVQAGGSLRLSCAASGRIFNYYAMGWYRQAPGTERELVAAISTDGGSTYYADSVKGRFTISRDNAKNSVYLQMNSLKPEDTAVYYCAAYQYYDFSYSYDYWGQGTQVTVSS”: “low polyreactivity”; for “QVQLVESGGGLVQAGGSLRLSCAASGRIFNYYDMGWYRQAPGKERELVAAISSGGTTYYADSVKGRFTISRDNAKNTVYLQMNCLKREDTAVYFCASYYTPQRLRSGKFDYWGQGTQVTVST”: “high polyreactivity”.
As to “QVQLVESGGGLVQAGGSLRLSCAASGRIFPANAMGWYRQAPGKERELVAGITWRGDSTYYADSVKGRFTISRDNAKNTVYLQMNSLKPEDTAVYYCAATFRYTKLYYWGHGTQVTVSS”, the “polyreactivity (PSR sort gate)” value is “low polyreactivity”.
As to “QVQLVESGGGLVQAGGSLRLSCAASGRIFPANVMGWYRQAPGKERELVATIDNGGGTYYADSVKGRFTISRDNAKNTVYLQMNSLKPEDTAVYYCARDRHVRWGLKMDYWGQGTQVTVSS”, the “polyreactivity (PSR sort gate)” value is given as “low polyreactivity”.
The same measure for “QVQLVESGGGLVQAGGSLRLSCAASGRIFPAYVMGWYRQAPGKERQLVATIDNGGGTYFADSVKGRFTISRDNAKNTVYLQMNRLKPVETAVYYCARDRHVRWGLNMDYWGQGTQVTVSS”: “low polyreactivity”.
